A short description of the data set: amyloid nucleation score (Sup35N fusion, yeast selection) (log enrichment); library NNK1; higher = more nucleation; inactive = no reads after selection. The method, boiled down: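 Yeast lacking psi expressed peptides of 20 random codons fused to Sup35N, received 100 μM copper sulfate for 24 hours, and were then grown for 7 days at 30°C on medium lacking adenine and uracil. Illumina sequencing of input and output plasmid inserts provided the reads. Nucleation scores are DiMSum log enrichments of output over input, centred on the mode of non-aggregating sequences. Any sequence with under 100 input reads was excluded.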

± gives the uncertainty stated by the source.

In turn, TFSWYRLRSVMGLVGNAAMI displayed an amyloid nucleation score of 0.31 ± 0.61. For NSRGVSSKYCFGKRIPDGGL the value was 0.117 ± 0.3. The same measure for MYASRNNFNSFTGYRYSSVS: -0.077 ± 0.21; for HSIWSRERVVVGVIYVCNFN: 7.227 ± 0.048. As to YITAWEWVQRRVV, the amyloid nucleation score stood at 2.46 ± 0.18. The same measure for GFGSMLVEVTLYSAVAVAAR: 0.852 ± 0.52; for RSTISGWR: “inactive”. Regarding PDRGEKLRRLNVWNKPCFGT, the amyloid nucleation score worked out at 0.829 ± 0.93. For NVNCNRYSWMGDHSCEGRQP the value was -0.128 ± 0.57; for GTCYGCLLILVCSLFGSTTG, 1.12 ± 0.66; for TSILAKNIIYCHYVGFPLGC, 5.97 ± 0.093. Substance THSSGINVTPPDVCSLITLT showed an amyloid nucleation score of -0.159 ± 1.2.

As to YSMLQFWDRAAMSV, the amyloid nucleation score was -0.294 ± 1.5.

STVTTAYNDMSLIWQAARVL registered an amyloid nucleation score of 0.436 ± 0.57.

Consider YFIFFLSNVFASSVIILMYM, for which the amyloid nucleation score was -0.071 ± 0.36. For LHLERALLTNRLFRS the value was 0.077 ± 0.49; for TWNNKFRPLVEHGYSAS, -0.526 ± 0.85. Substance YFLLPYADRIHHLSVNCFWM registered an amyloid nucleation score of -0.008 ± 0.93. The same measure for QVRCAFVIRRSV: 0.143 ± 0.64. For KLKQVCPLTPVSRVSEQGKK, the amyloid nucleation score was -0.441 ± 1.1. SHTYG returned an amyloid nucleation score of 0.06 ± 0.59. Take MYMIWEQGKPCSILDTHTVT: the amyloid nucleation score came to 0.598 ± 0.26. The same measure for NKIQQGYMSPYCNHSVFVSF: -0.296 ± 0.65. For VGRHALGTSRGKRL the value was -0.307 ± 0.67; for MGQGLCPRSYMFLVCELIVF, 0.818 ± 0.43. The same measure for HIYSRYQERRLVFVWYACND: 0.134 ± 0.38. In turn, MCGFF returned an amyloid nucleation score of -0.178 ± 0.57. The same measure for TSRSSVFRVAFHCGGSDSLV: 0.039 ± 0.43; for DSAIWDKNFSLDMGSGFMHC: -0.125 ± 1.7; for GGESQFLGFTHCKLAFCSWW: 0.236 ± 0.5. The same measure for SSWQGLRNLHGSYEDQINVK: 4.17 ± 0.073. The same measure for CAAGARSSGEMAYIARMKAG: 0.482 ± 0.69.

As to FRLRL, the amyloid nucleation score was 0.019 ± 0.83.

In turn, VFGHIGIDRGI registered an amyloid nucleation score of 2.74 ± 0.22. As to VPYQCDKTKHFVRKVLILGA, the amyloid nucleation score turned out to be 1.81 ± 0.58. For FLEFVWRALEM the value was -1.16 ± 0.86; for LVLAENCR, -0.672 ± 0.68; for RFLGIRTATMDMGSKERMWV, 0.601 ± 0.44. For SIQNPLNLVDNLPTT the value was -0.114 ± 0.21; for HEPFDSDHTVARRETCLFGR, -0.928 ± 0.52.

As for CIIDKFGVLIV, the amyloid nucleation score entry was “inactive”. SRVCYNRWLKLWDSDRPVIG yielded an amyloid nucleation score of -0.001 ± 0.36. Substance SLPFVTS displayed an amyloid nucleation score of -0.319 ± 0.71. On to CFRTFKFLI, for which the amyloid nucleation score was 2.49 ± 0.27.

For the substance YAFWFLCGYALP, the amyloid nucleation score turned out to be 2.92 ± 0.12. VNGWARSMGGFLSCNSQRFG: the amyloid nucleation score was -0.221 ± 0.65. For PLYGASDK the value was -0.277 ± 0.97; for RDFYNCS, 0.166 ± 0.26; for CCVDGLLLIERHVSLQYHSA, 0.135 ± 0.63. For ARFMLAWEVNCQG the value was 1.39 ± 0.22; for LSLFCVLMY, 2.1 ± 0.27. On to TSNCGTSLIDHSVRLLMLQR, for which the amyloid nucleation score is -0.163 ± 0.49.

AVVWDTIYNKTKPLVRP had an amyloid nucleation score of 0.57 ± 0.93. Turning to RIYKSWSFRTLRLPEC, the amyloid nucleation score was 2.25 ± 0.1. For WSNTCRASYFRPCGCG the value was 0.391 ± 0.39; for DEKMVSVSSESGRLHKNVKC, 1.11 ± 0.49.

The substance WNMFGS gave an amyloid nucleation score of 0.848 ± 0.29. Turning to GILFVFFQYF, the amyloid nucleation score came to 1.95 ± 0.15. On to AWCSSDGCFCPKRYMLLRSL, for which the amyloid nucleation score came to 0.159 ± 0.84. For NSCRMPYSGV the value was “inactive”. For NDYFY the value was -0.598 ± 1.4. The same measure for FKCKSDAPWPWLHSL: 1.37 ± 0.45; for SKCLMNS: -1.26 ± 1.7; for FGASIGDGDFRVM: 0.069 ± 0.53.

FHLWHLIVYILALY had an amyloid nucleation score of -0.955 ± 0.77.

FTCLVNSNSPL showed an amyloid nucleation score of 0.606 ± 0.71. The same measure for NYRFVCEPYFYSNCPPAQWT: 0.02 ± 0.59; for ESNMGNGSRGIDV: 0.821 ± 1.1; for DKNVSRFIPNEMLCLKPWAP: 1.19 ± 0.9. Regarding GRCLCGLVDDYFYNAYWVLP, the amyloid nucleation score was -0.555 ± 0.35.

As for SASEIPALSTTGSNGMDEVI, the amyloid nucleation score was -0.249 ± 0.54. Regarding GVWGQFQVSILWRHKCDLSG, the amyloid nucleation score entry was “inactive”.

As for MDARKTGTDNWRTS, the amyloid nucleation score is -0.202 ± 0.32. In the case of GQDSGSSNVFSSCICNLHVF, the amyloid nucleation score was determined as 7.715 ± 0.046. GESCLDSRFRNDDNR had an amyloid nucleation score of 0.09 ± 0.33. In the case of CWLGCYPSSGEQWGGWFNAI, the amyloid nucleation score was -0.344 ± 0.7. Regarding FDFTNGRISFAFCNNSCCPY, the amyloid nucleation score was found to be 2.46 ± 0.34. In turn, CGSRSCSLFDRKWIRYFLGC came in with an amyloid nucleation score of 0.759 ± 0.34. The substance GLMLHCGGLCWLLVVV registered an amyloid nucleation score of -0.539 ± 0.41. The same measure for WNRFRIMQLDITG: 0.103 ± 0.22; for FDNLIVYVTVYFFLTYAPFV: 1.41 ± 0.26.

As to TLLSVTYSCIRMPVPMAYRS, the amyloid nucleation score was 4.42 ± 0.085. The same measure for LNVCSRTPWYKSQSFVDRCV: -1.69 ± 2.4; for KSQCWRSGLVLFNA: -0.243 ± 0.36; for GQNLGRSRLGNVYRGPCGNC: -0.095 ± 1.1. Take AFPQFLGCLVIFQSHGRRER: the amyloid nucleation score came to 8.1 ± 0.064. The substance RYVLFALWWYKVGAEIYNKV came in with an amyloid nucleation score of 0.48 ± 0.69. Turning to RLTECSYCCNSDYITHMELL, the amyloid nucleation score is -0.317 ± 0.29. For GMCPLNRNGGFGNGVVEGVV the value was 0.166 ± 1.6; for VHVFSCLCPLLGSMIFLWMV, -0.871 ± 0.68. For RSHAIHVYKQLCHRVVFIWL the value was 1.39 ± 0.46; for HLCVTTGSSLL, -0.58 ± 0.98; for SCNDTI, -0.172 ± 1.5. For VISINSVLACVYTIVMR, the amyloid nucleation score was -0.1 ± 0.73.

KKMRGTFIRFIYRLFFLRYA: the amyloid nucleation score came to 0.656 ± 0.5.

TDCSSLC registered an amyloid nucleation score of -0.373 ± 0.31. For FSTFYY the value was “inactive”; for NLENLCLMILRVPVSDVMQP, “inactive”; for KRRVSLCMPWVGSDRRVFMG, 0.377 ± 0.31. For the substance TTTNCRI, the amyloid nucleation score was 0.057 ± 0.23. GIRMRGVSDLSLLRM yielded an amyloid nucleation score of 0.163 ± 0.77. As for YQVCTFSNNGIWLWRLSIPH, the amyloid nucleation score was 1.81 ± 0.23. The same measure for SAKGIME: 1.03 ± 0.45. For PCWWQFY the value was 0.167 ± 0.64; for RRSSSFSGIWYVSVGYNASL, -0.316 ± 0.53; for PVGVKGVQMVLS, -0.226 ± 0.83. The same measure for SFALLTQLNEYKTARMKRAG: 0.64 ± 0.35. In turn, GNYSIARGLKNDKWCFFSSY yielded an amyloid nucleation score of -0.234 ± 1.6. The substance IFCGRIKQCSLASHCKLEWG yielded an amyloid nucleation score of 0.69 ± 0.41. For ALVALRAY the value was 0.364 ± 1.2; for FYASQRSTPHAVFLCNALKV, 0.304 ± 0.52; for NICDFLIYVYYLRSVCDI, -0.358 ± 0.41. As to WRSSHINLGGIFRLSHTIYC, the amyloid nucleation score was -0.16 ± 0.38.

Substance NWVVFRMRHRLQTSFWGCGE displayed an amyloid nucleation score of 0.123 ± 0.57. In the case of SYGRLVGTWL, the amyloid nucleation score was -0.111 ± 0.54. DYYYSFMKTANR yielded an amyloid nucleation score of -0.087 ± 0.3. The same measure for LIIVRSMSNDGSIVGSQAWP: 8.152 ± 0.073. The same measure for VFRFRGCF: 1.62 ± 0.38; for LLFRNYHMGDLEHLFIFYWY: 0.475 ± 0.56; for LFIRYALSFESMWL: 0.586 ± 0.52. For ATSKRIQWLMRERAPPTRYP the value was 0.203 ± 1.5; for ELRSIDTWYPASGCML, -0.187 ± 0.29. For the substance IIASGHDFL, the amyloid nucleation score is -0.732 ± 0.87. Turning to KTRLSWYWKITCLLHSMKFS, the amyloid nucleation score was -0.12 ± 0.4. Substance LIGRRGLHYLF gave an amyloid nucleation score of -0.186 ± 1.9.

In the case of RVCMLLYCQVKVGTVN, the amyloid nucleation score was 2.3 ± 0.11.

FSALLIPENISD: the amyloid nucleation score was -1.25 ± 1.7.

The substance TTVPSNV came in with an amyloid nucleation score of -0.189 ± 1.7. For RDNKLSVAVVMQSYSVGESG the value was -0.034 ± 0.89; for SYDRNDFLGERSVGMH, 0.736 ± 0.36. Turning to VFYVFWYFRLCI, the amyloid nucleation score is 0.035 ± 0.2. Substance DLHRRSVCCFENVFVITAYY gave an amyloid nucleation score of 2.06 ± 0.27.

The substance GLYYSFRFYTFSVYRALRGS gave an amyloid nucleation score of -0.392 ± 1.1.

NWGAISISDRGPQKTDTAWT showed an amyloid nucleation score of -0.048 ± 0.48. The same measure for GYPIDGMYKRAALVRMDICF: 0.718 ± 0.92. Take YTYMHRNDEFALM: the amyloid nucleation score result is “inactive”. For LSMRWYTSPFAFGIS, the amyloid nucleation score was -0.114 ± 0.88. For VITTNLTCFALSYAAVFISK the value was 3.69 ± 0.078; for RMCLDGPITWFDRHK, 2.16 ± 0.15; for NMSINI, “inactive”. For LQNSDVFHADLQIISPTFCP the value was -0.826 ± 1.8; for TVEYNRPFCRFIFCGSGYRH, -1.2 ± 0.92.

The values above are taken from the supplement of paper PMC12042874.
